Measurements: patent US20240123029A1

Target: Recombinant human mannose binding lectin (MBL) (human) (UniProt P11226)
Sequence (P11226 21-248 limits assumed): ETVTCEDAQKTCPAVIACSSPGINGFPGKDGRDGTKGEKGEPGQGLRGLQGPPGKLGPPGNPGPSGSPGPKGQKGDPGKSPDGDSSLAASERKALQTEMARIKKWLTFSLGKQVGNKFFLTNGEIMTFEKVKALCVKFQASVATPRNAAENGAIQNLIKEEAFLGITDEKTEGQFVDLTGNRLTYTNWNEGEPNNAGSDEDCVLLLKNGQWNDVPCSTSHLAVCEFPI

Question: “Biotinylated SARS-CoV-2 S protein, His Tag, active trimer (from UniProt P0DTC2 16-1213) (other; other documents disagree on this pair)” was tested. Which EC50 (read off the curve) did it give?
Answer: 3 nM
